Experimental data taken from patent US12104181B2, “Compositions and methods for treating viral infections targeting TRIM7” (THE BOARD OF REGENTS OF THE UNIVERSITY OF TEXAS SYSTEM, priority 2021, dated 2024).

B1: TRIM35: human RING type E3 ligase expressed from lentiviral vector (protein, UniProt Q9UPQ4 1-493, looked up)
E3 ubiquitin-protein ligase …: MERSPDVSPGPSRSFKEELLCAVCYDPFRDAVTLRCGHNFCRGCVSRCWEVQVSPTCPVCKDRASPADLRTNHTLNNLVEKLLREEAEGARWTSYRFSRVCRLHRGQLSLFCLEDKELLCCSCQADPRHQGHRVQPVKDTAHDFRAKCRNMEHALREKAKAFWAMRRSYEAIAKHNQVEAAWLEGRIRQEFDKLREFLRVEEQAILDAMAEETRQKQLLADEKMKQLTEETEVLAHEIERLQMEMKEDDVSFLMKHKSRKRRLFCTMEPEPVQPGMLIDVCKYLGSLQYRVWKKMLASVESVPFSFDPNTAAGWLSVSDDLTSVTNHGYRVQVENPERFSSAPCLLGSRVFSQGSHAWEVALGGLQSWRVGVVRVRQDSGAEGHSHSCYHDTRSGFWYVCRTQGVEGDHCVTSDPATSPLVLAIPRRLRVELECEEGELSFYDAERHCHLYTFHARFGEVRPYFYLGGARGAGPPEPLRICPLHISVKEELDG
B2: TRIM37: human RING type E3 ligase expressed from lentiviral vector (protein, UniProt O94972 1-964, looked up)
E3 ubiquitin-protein ligase …: MDEQSVESIAEVFRCFICMEKLRDARLCPHCSKLCCFSCIRRWLTEQRAQCPHCRAPLQLRELVNCRWAEEVTQQLDTLQLCSLTKHEENEKDKCENHHEKLSVFCWTCKKCICHQCALWGGMHGGHTFKPLAEIYEQHVTKVNEEVAKLRRRLMELISLVQEVERNVEAVRNAKDERVREIRNAVEMMIARLDTQLKNKLITLMGQKTSLTQETELLESLLQEVEHQLRSCSKSELISKSSEILMMFQQVHRKPMASFVTTPVPPDFTSELVPSYDSATFVLENFSTLRQRADPVYSPPLQVSGLCWRLKVYPDGNGVVRGYYLSVFLELSAGLPETSKYEYRVEMVHQSCNDPTKNIIREFASDFEVGECWGYNRFFRLDLLANEGYLNPQNDTVILRFQVRSPTFFQKSRDQHWYITQLEAAQTSYIQQINNLKERLTIELSRTQKSRDLSPPDNHLSPQNDDALETRAKKSACSDMLLEGGPTTASVREAKEDEEDEEKIQNEDYHHELSDGDLDLDLVYEDEVNQLDGSSSSASSTATSNTEENDIDEETMSGENDVEYNNMELEEGELMEDAAAAGPAGSSHGYVGSSSRISRRTHLCSAATSSLLDIDPLILIHLLDLKDRSSIENLWGLQPRPPASLLQPTASYSRKDKDQRKQQAMWRVPSDLKMLKRLKTQMAEVRCMKTDVKNTLSEIKSSSAASGDMQTSLFSADQAALAACGTENSGRLQDLGMELLAKSSVANCYIRNSTNKKSNSPKPARSSVAGSLSLRRAVDPGENSRSKGDCQTLSEGSPGSSQSGSRHSSPRALIHGSIGDILPKTEDRQCKALDSDAVVVAVFSGLPAVEKRRKMVTLGANAKGGHLEGLQMTDLENNSETGELQPVLPEGASAAPEEGMSSDSDIECDTENEEQEEHTSVGGFHDSFMVMTQPPDEDTHSSFPDGEQIGPEDLSFNTDENSGR
modifications: lentiviral expression
notes: human RING type E3 ligase expressed from lentiviral vector
B3: TRIM38: human RING type E3 ligase expressed from lentiviral vector (protein, UniProt O00635 1-465, looked up)
E3 ubiquitin-protein ligase …: MASTTSTKKMMEEATCSICLSLMTNPVSINCGHSYCHLCITDFFKNPSQKQLRQETFCCPQCRAPFHMDSLRPNKQLGSLIEALKETDQEMSCEEHGEQFHLFCEDEGQLICWRCERAPQHKGHTTALVEDVCQGYKEKLQKAVTKLKQLEDRCTEQKLSTAMRITKWKEKVQIQRQKIRSDFKNLQCFLHEEEKSYLWRLEKEEQQTLSRLRDYEAGLGLKSNELKSHILELEEKCQGSAQKLLQNVNDTLSRSWAVKLETSEAVSLELHTMCNVSKLYFDVKKMLRSHQVSVTLDPDTAHHELILSEDRRQVTRGYTQENQDTSSRRFTAFPCVLGCEGFTSGRRYFEVDVGEGTGWDLGVCMENVQRGTGMKQEPQSGFWTLRLCKKKGYVALTSPPTSLHLHEQPLLVGIFLDYEAGVVSFYNGNTGCHIFTFPKASFSDTLRPYFQVYQYSPLFLPPPGD
modifications: lentiviral expression
notes: as for B2
B4: TRIM39: human RING type E3 ligase expressed from lentiviral vector (protein, UniProt Q9HCM9 1-518, looked up)
E3 ubiquitin-protein ligase …: MAETSLLEAGASAASTAAALENLQVEASCSVCLEYLKEPVIIECGHNFCKACITRWWEDLERDFPCPVCRKTSRYRSLRPNRQLGSMVEIAKQLQAVKRKIRDESLCPQHHEALSLFCYEDQEAVCLICAISHTHRAHTVVPLDDATQEYKEKLQKCLEPLEQKLQEITRCKSSEEKKPGELKRLVESRRQQILREFEELHRRLDEEQQVLLSRLEEEEQDILQRLRENAAHLGDKRRDLAHLAAEVEGKCLQSGFEMLKDVKSTLEKNIPRKFGGSLSTICPRDHKALLGLVKEINRCEKVKTMEVTSVSIELEKNFSNFPRQYFALRKILKQLIADVTLDPETAHPNLVLSEDRKSVKFVETRLRDLPDTPRRFTFYPCVLATEGFTSGRHYWEVEVGDKTHWAVGVCRDSVSRKGELTPLPETGYWRVRLWNGDKYAATTTPFTPLHIKVKPKRVGIFLDYEAGTLSFYNVTDRSHIYTFTDTFTEKLWPLFYPGIRAGRKNAAPLTIRPPTDWE
B5: TRIM40: human RING type E3 ligase expressed from lentiviral vector (protein, UniProt Q6P9F5 1-258, looked up)
E3 ubiquitin ligase TRIM40: MIPLQKDNQEEGVCPICQESLKEAVSTNCGHLFCRVCLTQHVEKASASGVFCCPLCRKPCSEEVLGTGYICPNHQKRVCRFCEESRLLLCVECLVSPEHMSHHELTIENALSHYKERLNRRSRKLRKDIAELQRLKAQQEKKLQALQFQVDHGNHRLEAGPESQHQTREQLGALPQQWLGQLEHMPAEAARILDISRAVTQLRSLVIDLERTAKELDTNTLKNAGDLLNRSAPQKLEVIYPQLEKGVSELLLQPPQKL
modifications: lentiviral expression
notes: as for B2
B6: TRIM43: human RING type E3 ligase expressed from lentiviral vector (protein, UniProt Q96BQ3 1-446, looked up)
Tripartite motif-containing …: MDSDFSHAFQKELTCVICLNYLVDPVTICCGHSFCRPCLCLSWEEAQSPANCPACREPSPKMDFKTNILLKNLVTIARKASLWQFLSSEKQICGTHRQTKKMFCDMDKSLLCLLCSNSQEHGAHKHHPIEEAAEEHREKLLKQMRILWKKIQENQRNLYEEGRTAFLWRGNVVLRAQMIRNEYRKLHPVLHKEEKQHLERLNKEYQEIFQQLQRSWVKMDQKSKHLKEMYQELMEMCHKPDVELLQDLGDIVARSESVLLHMPQPVNPELTAGPITGLVYRLNRFRVEISFHFEVTNHNIRLFEDVRSWMFRRGPLNSDRSDYFAAWGARVFSFGKHYWELDVDNSCDWALGVCNNSWIRKNSTMVNSEDIFLLLCLKVDNHFNLLTTSPVFPHYIEKPLGRVGVFLDFESGSVSFLNVTKSSLIWSYPAGSLTFPVRPFFYTGHR
B7: TRIM44: human RING type E3 ligase expressed from lentiviral vector (protein, UniProt Q96DX7 1-344, looked up)
Tripartite motif-containing …: MASGVGAAFEELPHDGTCDECEPDEAPGAEEVCRECGFCYCRRHAEAHRQKFLSHHLAEYVHGSQAWTPPADGEGAGKEEAEVKVEQEREIESEAGEESESEEESESEEESETEEESEDESDEESEEDSEEEMEDEQESEAEEDNQEEGESEAEGETEAESEFDPEIEMEAERVAKRKCPDHGLDLSTYCQEDRQLICVLCPVIGAHQGHQLSTLDEAFEELRSKDSGGLKAAMIELVERLKFKSSDPKVTRDQMKMFIQQEFKKVQKVIADEEQKALHLVDIQEAMATAHVTEILADIQSHMDRLMTQMAQAKEQLDTSNESAEPKAEGDEEGPSGASEEEDT
modifications: lentiviral expression
notes: as for B2

System: coxsackievirus B3 (CVB3-GFP)
Format: cell-based
Conditions: HeLa cells, GFP-positive cells within RFP-positive gate, replicate R1

Row | Molecule | Percent Infected R1 [%]
1 | B1 | 66.3
2 | B2 | 58.8
3 | B3 | 60.7
4 | B4 | 58.6
5 | B5 | 62.8
6 | B6 | 61.4
7 | B7 | 61.7

Same assay, conditions: HeLa cells, replicate R1

Row | Molecule | Z score R1
8 | B1 | −0.284
9 | B2 | −0.379
10 | B3 | −0.355
11 | B4 | −0.382
12 | B5 | −0.328
13 | B6 | −0.346
14 | B7 | −0.342
